According to patent US20240392004A1 (IMMUNOWAKE, published 2024):
Values belong to the binder of their own block, whether it stands above or below them.

What was measured:
[1] = target: T1, human PD-1 on cells (HEK-PD-1 reporter cells; activated PBMC) (human, UniProt Q15116 25-288); assay: cell-based or functional assay
[2] = target: human IL-12 receptor complex (IL-12Rβ1 and IL-12Rβ2) (human, UniProt P42701 24-662; Q99665 24-862); assay: cell-based or functional assay
[3] = target: T2, human IL-2 receptor (IL-2Rα, IL-2Rβ, IL-2Rγ) (human, UniProt P01589 22-272; P14784 27-551; P31785 23-369); assay: cell-based or functional assay
T2 sequence (looked up) 1: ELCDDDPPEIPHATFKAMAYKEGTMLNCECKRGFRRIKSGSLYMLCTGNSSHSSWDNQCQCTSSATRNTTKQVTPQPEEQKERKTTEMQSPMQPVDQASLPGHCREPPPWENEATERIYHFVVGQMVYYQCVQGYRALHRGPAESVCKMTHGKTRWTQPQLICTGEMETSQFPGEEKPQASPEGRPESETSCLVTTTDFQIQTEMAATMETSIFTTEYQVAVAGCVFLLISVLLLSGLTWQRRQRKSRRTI
T2 sequence (looked up) 2: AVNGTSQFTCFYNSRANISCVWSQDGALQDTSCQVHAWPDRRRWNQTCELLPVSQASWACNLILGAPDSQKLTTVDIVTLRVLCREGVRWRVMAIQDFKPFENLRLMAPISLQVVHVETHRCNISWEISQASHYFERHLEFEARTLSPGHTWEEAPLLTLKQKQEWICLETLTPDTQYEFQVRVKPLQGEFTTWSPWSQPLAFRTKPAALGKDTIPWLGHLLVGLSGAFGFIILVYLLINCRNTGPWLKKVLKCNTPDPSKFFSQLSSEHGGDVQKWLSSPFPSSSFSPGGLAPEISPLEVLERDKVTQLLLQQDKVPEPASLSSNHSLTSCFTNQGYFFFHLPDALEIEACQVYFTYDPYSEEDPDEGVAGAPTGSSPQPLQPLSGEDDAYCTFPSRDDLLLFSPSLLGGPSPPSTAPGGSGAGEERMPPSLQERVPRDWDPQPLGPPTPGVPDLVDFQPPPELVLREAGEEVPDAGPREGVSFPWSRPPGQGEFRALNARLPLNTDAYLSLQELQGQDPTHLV
T2 sequence (looked up) 3: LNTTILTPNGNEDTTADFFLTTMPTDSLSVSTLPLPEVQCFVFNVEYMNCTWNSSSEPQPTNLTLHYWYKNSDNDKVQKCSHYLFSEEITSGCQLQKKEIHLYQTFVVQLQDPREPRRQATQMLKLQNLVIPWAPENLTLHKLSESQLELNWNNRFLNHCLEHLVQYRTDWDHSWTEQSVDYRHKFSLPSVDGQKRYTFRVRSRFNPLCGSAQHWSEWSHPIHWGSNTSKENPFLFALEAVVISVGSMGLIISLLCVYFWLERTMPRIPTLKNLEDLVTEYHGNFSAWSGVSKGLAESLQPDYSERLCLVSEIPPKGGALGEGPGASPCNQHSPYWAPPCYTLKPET

[4] = target: T3, human PD-1 (human, UniProt Q15116 25-167, limits assumed); assay: rounded restatement of Tables 14 and 15
T3 construct: also called hPD-1
T3 sequence (Q15116 25-167 limits assumed): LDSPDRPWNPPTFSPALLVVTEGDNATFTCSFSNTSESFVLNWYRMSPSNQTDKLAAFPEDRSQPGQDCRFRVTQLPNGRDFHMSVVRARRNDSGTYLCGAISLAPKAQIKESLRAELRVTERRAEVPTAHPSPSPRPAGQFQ

[5] = target: T4, mouse PD-1 (mouse, UniProt Q02242 25-167, limits assumed); assay: rounded restatement of Tables 14 and 15
T4 construct: also called mPD-1
T4 sequence (looked up): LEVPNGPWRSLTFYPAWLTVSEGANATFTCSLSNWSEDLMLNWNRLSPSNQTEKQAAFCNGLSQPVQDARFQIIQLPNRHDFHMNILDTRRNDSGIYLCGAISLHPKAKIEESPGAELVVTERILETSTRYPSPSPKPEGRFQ

[6] = target: T4, mouse PD-1; assay: same value as Table 14 (measured in PD-L1-Fc format)
[7] = target: T1, human PD-1 on cells (HEK-PD-1 reporter …); assay: cell-based or functional assay; remark: listed apart in the source
[8] = target: T2, human IL-2 receptor (IL-2Rα, IL-2Rβ, …); assay: cell-based or functional assay; remark: listed apart in the source
[9] = target: T2, human IL-2 receptor (IL-2Rα, IL-2Rβ, …); assay: FACS on HEK-Blue IL-2 cells (IL-2 receptor, no PD-1)

T1 sequence (Q15116 25-288): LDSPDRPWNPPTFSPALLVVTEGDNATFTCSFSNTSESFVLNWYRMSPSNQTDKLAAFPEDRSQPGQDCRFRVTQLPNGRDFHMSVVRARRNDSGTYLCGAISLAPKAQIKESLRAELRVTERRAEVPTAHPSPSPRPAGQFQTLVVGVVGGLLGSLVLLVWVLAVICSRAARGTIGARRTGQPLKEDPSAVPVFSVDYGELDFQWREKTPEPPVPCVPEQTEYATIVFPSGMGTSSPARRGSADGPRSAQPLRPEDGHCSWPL
human IL-12 receptor complex (IL-12Rβ1 and IL-12Rβ2), sequence (Q99665 24-862, chain 2 of 2, other chains not shown): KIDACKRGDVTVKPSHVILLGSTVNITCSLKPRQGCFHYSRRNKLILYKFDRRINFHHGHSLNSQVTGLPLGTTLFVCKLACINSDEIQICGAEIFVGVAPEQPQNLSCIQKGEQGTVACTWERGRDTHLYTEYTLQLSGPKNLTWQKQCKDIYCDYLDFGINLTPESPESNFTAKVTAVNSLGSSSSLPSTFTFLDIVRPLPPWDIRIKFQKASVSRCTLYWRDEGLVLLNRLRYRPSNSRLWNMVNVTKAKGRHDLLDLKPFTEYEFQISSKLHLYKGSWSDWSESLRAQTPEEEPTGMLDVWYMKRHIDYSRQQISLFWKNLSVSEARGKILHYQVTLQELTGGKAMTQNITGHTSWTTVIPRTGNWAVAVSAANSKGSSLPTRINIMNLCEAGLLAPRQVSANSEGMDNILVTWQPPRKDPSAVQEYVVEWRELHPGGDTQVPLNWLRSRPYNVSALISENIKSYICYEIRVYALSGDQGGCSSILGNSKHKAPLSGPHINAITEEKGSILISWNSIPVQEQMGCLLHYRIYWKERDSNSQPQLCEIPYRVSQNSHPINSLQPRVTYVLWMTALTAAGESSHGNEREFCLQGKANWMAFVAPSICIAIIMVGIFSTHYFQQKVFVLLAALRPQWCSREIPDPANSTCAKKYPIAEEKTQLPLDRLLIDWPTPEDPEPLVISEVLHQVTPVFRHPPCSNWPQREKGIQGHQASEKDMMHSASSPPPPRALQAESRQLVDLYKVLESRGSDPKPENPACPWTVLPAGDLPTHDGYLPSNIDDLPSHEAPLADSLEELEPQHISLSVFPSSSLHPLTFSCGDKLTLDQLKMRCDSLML

- IL-2 signal transduction, HEK-IL-2-PD-1 [1]: < 0.1%
- IL-12 signal transduction, HEK-IL-12-PD-1 [1]: 24%
- IL-12 signal transduction, HEK-IL-12 [2]: < 0.2%
- IL-2 signal transduction, HEK-IL-2 [3]: < 0.1%
- Kd [4]: ~100 nM
- Kd [5]: ~100 nM
- Kd [6]: 120 nM
B1: IL-12(E59A/F60A)/PD-L1(mut2)-Fc (IL-12 at hinge) (Fc fusion)
chain 1: FTVTVPKDLYVVEYGSNMTIECKFPVEKQLDLAALQVYWMMEDKNIIQFVHGEEDLKVQHSSYRQRARLLKDQLSLGNAALQITDVKLQDAGVYTCLIAYKGADYKRITVKVNAPYNKINQRILVVDPVTSEHELTCQAEGYPKAEVIWTSSDHQVLSGKTTTTNSKREEKLFNVTSTLRINTTTNEIFYCTFRRLDPEENHTAELVIPELPLAHPPNERGGGGSGGGIWELKKDVYVVELDWYPDAPGEMVVLTCDTPEEDGITWTLDQSSEVLGSGKTLTIQVKAAGDAGQYTCHKGGEVLSHSLLLLHKKEDGIWSTDILKDQKEPKNKTFLRCEAKNYSGRFTCWWLTTISTDLTFSVKSSRGSSDPQGVTCGAATLSAERVRGDNKEYEYSVECQEDSACPAAEESLPIEVMVDAVHKLKYENYTSSFFIRDIIKPDPPKNLQLKPLKNSRQVEVSWEYPDTWSTPHSYFSLTFCVQVQGKSKREKKDRVFTDKTSATVICRKNASISVRAQDRYYSSSWSEWASVPCSGGGGSGGGSGGGGSRNLPVATPDPGMFPCLHHSQNLLRAVSNMLQKARQTLEFYPCTSEEIDHEDITKDKTSTVEACLPLELTKNESCLNSRETSFITNGSCLASRKTSFMMALCLSSIYEDLKMYQVEFKTMNAKLLMDPKRQIFLDQNMLAVIDELMQALNFNSETVPQKSSLEEPDFYKTKIKLCILLHAFRIRAVTIDRVMSYLNASGGGGSGGGDKTHTCPPCPAPEDEGGPSVFLFPPKPKDTLMISRTPEVTCVVVDVSHEDPEVKFNWYVDGVEVHNAKTKPREEQYNSTYRVVSVLTVLHQDWLNGKEYKCKVSNKALPAPIEKTISKAKGQPREPQVYVYPPSREEMTKNQVSLTCLVKGFYPSDIAVEWESNGQPENNYKTTPPVLDEDGSFALVSKLTVDKSRWQQGNVFSCSVMHEALHNHYTQKSLSLSPGK
chain 2: FTVTVPKDLYVVEYGSNMTIECKFPVEKQLDLAALQVYWMMEDKNIIQFVHGEEDLKVQHSSYRQRARLLKDQLSLGNAALQITDVKLQDAGVYTCLIAYKGADYKRITVKVNAPYNKINQRILVVDPVTSEHELTCQAEGYPKAEVIWTSSDHQVLSGKTTTTNSKREEKLFNVTSTLRINTTTNEIFYCTFRRLDPEENHTAELVIPELPLAHPPNERGGGGSGGGDKTHTCPPCPAPEKKGGPSVFLFPPKPKDTLMISRTPEVTCVVVDVSHEDPEVKFNWYVDGVEVHNAKTKPREEQYNSTYRVVSVLTVLHQDWLNGKEYKCKVSNKALPAPIEKTISKAKGQPREPQVYVLPPSREEMTKNQVSLLCLVKGFYPSDIAVEWESNGQPENRYMTWPPVLDSDGSFFLYSKLTVDKSRWQQGNVFSCSVMHEALHNHYTQKSLSLSPGK
notes: also called IL-12(E59A/F60A)/PD-L1(I54Q/E58M/R113T/M115L/S117A/G119K)-Fc

- Percent IL-2 signal transduction (HEK-PD-1-IL-2 reporter assay) [7]: 43.5%
- Percent IL-2 signal transduction (HEK-IL-2 reporter assay) [8]: 2.4%
- binding result [9]: no binding
B2: IL-2(R38D/K43E/E61R)/PD-L2-Fc immunomodulatory molecule (Fc fusion)
chain 1: LFTVTVPKELYIIEHGSNVTLECNFDTGSHVNLGAITASLQKVENDTSPHRERATLLEEQLPLGKASFHIPQVQVRDEGQYQCIIIYGVAWDYKYLTLKVKASYRKINTHILKVPETDEVELTCQATGYPLAEVSWPNVSVPANTSHSRTPEGLYQVTSVLRLKPPPGRNFSCVFWNTHVRELTLASIDLQSQMEPRTHPTGGGGSAPTSSSTKKTQLQLEHLLLDLQMILNGINNYKNPKLTDMLTFEFYMPKKATELKHLQCLERELKPLEEVLNLAQSKNFHLRPRDLISNINVIVLELKGSETTFMCEYADETATIVEFLNRWITFCQSIISTLTDKTHTCPPCPAPEDEGGPSVFLFPPKPKDTLMISRTPEVTCVVVDVSHEDPEVKFNWYVDGVEVHNAKTKPREEQYNSTYRVVSVLTVLHQDWLNGKEYKCKVSNKALPAPIEKTISKAKGQPREPQVYVYPPSREEMTKNQVSLTCLVKGFYPSDIAVEWESNGQPENNYKTTPPVLDEDGSFALVSKLTVDKSRWQQGNVFSCSVMHEALHNHYTQKSLSLSPGK
chain 2: LFTVTVPKELYIIEHGSNVTLECNFDTGSHVNLGAITASLQKVENDTSPHRERATLLEEQLPLGKASFHIPQVQVRDEGQYQCIIIYGVAWDYKYLTLKVKASYRKINTHILKVPETDEVELTCQATGYPLAEVSWPNVSVPANTSHSRTPEGLYQVTSVLRLKPPPGRNFSCVFWNTHVRELTLASIDLQSQMEPRTHPTGGGGSDKTHTCPPCPAPEKKGGPSVFLFPPKPKDTLMISRTPEVTCVVVDVSHEDPEVKFNWYVDGVEVHNAKTKPREEQYNSTYRVVSVLTVLHQDWLNGKEYKCKVSNKALPAPIEKTISKAKGQPREPQVYVLPPSREEMTKNQVSLLCLVKGFYPSDIAVEWESNGQPENRYMTWPPVLDSDGSFFLYSKLTVDKSRWQQGNVFSCSVMHEALHNHYTQKSLSLSPGK
notes: also called ligand-IL-2 mutant-PD-L2-Fc; IW-#11
